In PMC5376962:

Target: Burkholderia pseudomallei N-type ATPase c-subunit (atpE), assembled into the c17 rotor ring, expressed alone in E. coli (Burkholderia pseudomallei)
Experiment: cryo-EM structure

“Burkholderia pseudomallei N-type ATPase c-subunit (atpE), assembled into the c17 rotor ring, expressed alone in E. coli (natural protein)” gave a stoichiometry N of 17.
